Test results reported in patent US20250099635A1, “IIMMUNOCONJUGATES COMPRISING KALLIKREIN RELATED PEPTIDASE 2 ANTIGEN BINDING DOMAINS AND THEIR USES” (Janssen Biotech, Inc., priority 2022, published 2025).

B1: KL2B413 (scFv-LH-Fc) (Fc fusion, part only; not given: Fc part, part only)
scFv, part: EIVLTQSPSFLSASVGDRVTITCRASQGISSYLSWYQQKPGKAPKLLIYATSTLQSGVPSRFSGSGSGTEFTLTISSLQPEDFATYYCQQLNSYPRTFGQGTKVEIKGGSEGKSSGSGSESKSTGGSEVQLVESGGGLVQPGGSLRLSCAASGFTFSSYWMTWVRQAPGKGLEWVANIKQDGSERYYVDSVKGRFTISRDNAKNSLYLQMNSLRAEDTAVYYCARDQNYDILTGHYGMDVWGQGTTVTVSS
B2: KL2B359 (scFv-LH-Fc) (Fc fusion, part only; not given: Fc part, part only)
scFv, part: EIVLTQSPATLSLSPGERATLSCRASESVEYFGTSLMHWYQQKPGQPPRLLIYAASNVESGIPARFSGSGSGTDFTLTISSVEPEDFAVYFCQQTRKVPYTFGGGTKVEIKGGSEGKSSGSGSESKSTGGSQVQLQESGPGLVKPSQTLSLTCTVSGNSITSDYAWNWIRQFPGKRLEWIGYISYSGSTTYNPSLKSRVTISRDTSKNQFSLKLSSVTAADTAVYYCATGYYYGSGFWGQGTLVTVSS

Molecular target: soluble human kallikrein related peptidase 2 (hK2) protein (human) (UniProt P20151)
Sequence (P20151 19-261): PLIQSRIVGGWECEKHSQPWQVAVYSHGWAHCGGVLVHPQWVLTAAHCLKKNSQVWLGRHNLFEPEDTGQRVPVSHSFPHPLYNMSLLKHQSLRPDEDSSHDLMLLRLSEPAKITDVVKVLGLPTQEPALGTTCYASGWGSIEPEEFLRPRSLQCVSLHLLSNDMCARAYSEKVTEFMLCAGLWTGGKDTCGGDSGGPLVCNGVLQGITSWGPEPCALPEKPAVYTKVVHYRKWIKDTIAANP
Experiment: SPR; antibody captured by anti-Fc antibody, soluble hK2 injected; 1:1 Langmuir fit

Binder	Kd [nM]
B1	34.3
B2	0.7 to 1
